For one assay, the target named is AP2-μ2 (APμ2-HA) (UniProt P84092). Put plainly: biotin-peptide pull-down from lysate, Western blot. As to conditions: reference: unphosphorylated E7 13-28 peptide; sites T19,T20.
The target in a further assay is PARD3 (UniProt Q8TEW0). As to the kind of experiment: biotin-peptide pull-down from lysate, Western blot. As to conditions: reference: unphosphorylated E7 13-28 peptide; sites T19,T20.
The target of another assay is PTPN13 (UniProt Q12923). Put plainly: biotin-peptide pull-down from lysate, Western blot. The settings on record: reference: unphosphorylated E7 13-28 peptide; sites T19,T20.
A further assay concerns the target pRb (UniProt P06400). Put plainly: biotin-peptide pull-down from lysate, Western blot. As to conditions: reference: unphosphorylated E7 13-28 peptide; sites T19,T20.
The next assay addresses IQGAP1 (UniProt P46940). As to the kind of experiment: GST pull-down after in vitro phosphorylation. The settings on record: reference: GST-E7 not kinase-treated; sites T5,T7,T19,T20.
The next assay concerns the target PTPN14 (UniProt Q15678). Put plainly: GST pull-down after in vitro phosphorylation. The settings on record: reference: GST-E7 not kinase-treated; sites T5,T7,T19,T20.

For “HPV16 E7 13-28 (from UniProt P03129) pT19/pT20 E7 13-28 peptide”, the “binding against the reference” value in the assay with AP2-μ2 (APμ2-HA) is “stronger”; with PARD3, “gained”; in the assay with PTPN13 it was “gained”; with pRb, “stronger”.
In the case of “HPV16 E7 (from UniProt P03129) GST-E7 phosphorylated with CKI and GSK3”, the “binding against the reference” value with IQGAP1 was “stronger”; with PTPN14, “same”.

For the origin of these results see paper PMC10500460.
